According to patent publication US6713265 (SYNAPTIC PHARMACEUTICAL, dated 2004):
Read-outs that look alike come from different tables or passages of the source. Ends that are not written are not given here.

Assays:
human Y2 receptor [1] = target: T1, human Y2 receptor (human, UniProt P49146 1-381); assay: 125I-PYY displacement, COS-7 membranes
T1 construct: whole, on cells
T1 sequence (looked up): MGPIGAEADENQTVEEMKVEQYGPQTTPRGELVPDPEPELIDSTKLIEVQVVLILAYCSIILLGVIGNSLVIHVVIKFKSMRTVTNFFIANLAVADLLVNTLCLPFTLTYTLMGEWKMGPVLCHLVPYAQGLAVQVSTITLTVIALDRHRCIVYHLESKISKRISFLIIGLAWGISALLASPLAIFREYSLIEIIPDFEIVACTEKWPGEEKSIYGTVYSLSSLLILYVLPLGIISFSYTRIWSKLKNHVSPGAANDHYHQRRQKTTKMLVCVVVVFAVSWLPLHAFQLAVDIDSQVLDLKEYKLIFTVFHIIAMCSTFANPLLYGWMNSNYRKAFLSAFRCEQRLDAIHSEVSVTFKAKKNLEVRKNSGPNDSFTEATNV

human Y2 receptor [2] = target: T1, human Y2 receptor; assay: 125I-PYY displacement, COS-7 membranes; remark: listed apart in the source
rat Y1 receptor = target: T2, rat Y1 receptor (rat, UniProt P21555 1-382); assay: 125I-PYY displacement, COS-7 membranes
T2 construct: whole, on cells; also called rY1
T2 sequence (looked up): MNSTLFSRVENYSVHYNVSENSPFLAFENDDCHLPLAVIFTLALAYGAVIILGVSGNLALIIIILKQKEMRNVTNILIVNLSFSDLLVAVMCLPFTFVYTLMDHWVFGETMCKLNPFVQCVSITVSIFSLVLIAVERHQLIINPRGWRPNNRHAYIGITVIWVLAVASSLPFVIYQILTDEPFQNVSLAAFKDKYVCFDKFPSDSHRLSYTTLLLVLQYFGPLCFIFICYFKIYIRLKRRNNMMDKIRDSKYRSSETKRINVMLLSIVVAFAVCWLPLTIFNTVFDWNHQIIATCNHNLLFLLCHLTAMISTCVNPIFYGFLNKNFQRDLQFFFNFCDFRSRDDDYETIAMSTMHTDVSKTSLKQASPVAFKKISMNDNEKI

rat Y2 receptor = target: T3, rat Y2 receptor (rat, UniProt Q9ERC0 1-381); assay: 125I-PYY displacement, COS-7 membranes
T3 construct: whole, on cells; also called rY2
T3 sequence: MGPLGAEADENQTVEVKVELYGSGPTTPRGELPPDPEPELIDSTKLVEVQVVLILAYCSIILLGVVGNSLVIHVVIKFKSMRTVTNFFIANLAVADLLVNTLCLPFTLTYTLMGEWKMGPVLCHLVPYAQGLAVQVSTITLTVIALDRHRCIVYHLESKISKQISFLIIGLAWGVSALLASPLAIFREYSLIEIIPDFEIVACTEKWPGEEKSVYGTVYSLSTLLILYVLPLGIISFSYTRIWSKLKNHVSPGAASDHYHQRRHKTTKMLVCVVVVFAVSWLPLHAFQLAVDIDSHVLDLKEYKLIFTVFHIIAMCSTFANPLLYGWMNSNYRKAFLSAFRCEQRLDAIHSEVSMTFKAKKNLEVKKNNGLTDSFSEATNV

canine Y5 receptor [3] = target: T4, canine Y5 receptor (canine, UniProt O62729 1-446); assay: 125I-PYY displacement, COS-7 membranes
T4 construct: Transiently expressed in COS-7 cells; also called canine (beagle) Y5; BO11
T4 sequence: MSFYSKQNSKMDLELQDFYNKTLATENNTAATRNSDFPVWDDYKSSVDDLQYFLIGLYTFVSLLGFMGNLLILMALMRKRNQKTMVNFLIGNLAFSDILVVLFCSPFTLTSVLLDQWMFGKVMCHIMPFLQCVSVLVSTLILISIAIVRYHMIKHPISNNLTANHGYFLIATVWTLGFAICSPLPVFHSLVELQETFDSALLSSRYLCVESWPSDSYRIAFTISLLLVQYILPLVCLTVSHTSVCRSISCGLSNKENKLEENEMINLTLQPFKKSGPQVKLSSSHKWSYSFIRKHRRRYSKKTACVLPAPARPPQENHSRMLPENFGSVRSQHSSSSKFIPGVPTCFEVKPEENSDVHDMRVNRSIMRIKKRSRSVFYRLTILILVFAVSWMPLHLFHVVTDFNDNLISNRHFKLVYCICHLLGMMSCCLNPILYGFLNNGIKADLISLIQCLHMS

rat Y4 receptor [4] = target: T5, rat Y4 receptor (rat, UniProt Q63447 1-375); assay: 125I-PYY displacement, COS-7 membranes
T5 construct: whole, on cells; also called rY4

human Y5 receptor [5] = target: T6, human Y5 receptor (human, UniProt Q15761 1-445); assay: 125I-PYY3-36 displacement, LM(tk-) membranes
T6 construct: also called CG-19; hY5
T6 sequence: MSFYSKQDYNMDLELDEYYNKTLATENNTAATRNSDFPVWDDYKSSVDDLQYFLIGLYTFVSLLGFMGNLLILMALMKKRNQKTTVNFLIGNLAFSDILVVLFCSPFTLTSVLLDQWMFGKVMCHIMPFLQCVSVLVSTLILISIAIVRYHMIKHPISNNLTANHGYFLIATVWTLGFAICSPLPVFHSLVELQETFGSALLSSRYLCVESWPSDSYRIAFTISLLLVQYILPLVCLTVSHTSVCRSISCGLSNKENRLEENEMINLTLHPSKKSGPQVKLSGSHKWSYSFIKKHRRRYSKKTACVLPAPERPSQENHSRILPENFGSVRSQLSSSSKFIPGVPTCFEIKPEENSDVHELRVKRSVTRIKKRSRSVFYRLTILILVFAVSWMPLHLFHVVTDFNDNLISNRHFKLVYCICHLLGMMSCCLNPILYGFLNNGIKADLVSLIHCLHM

[6] = target: T7, rat hypothalamic Y5 receptor (rat, UniProt Q63634 1-445); assay: cell-based or functional assay
T7 sequence: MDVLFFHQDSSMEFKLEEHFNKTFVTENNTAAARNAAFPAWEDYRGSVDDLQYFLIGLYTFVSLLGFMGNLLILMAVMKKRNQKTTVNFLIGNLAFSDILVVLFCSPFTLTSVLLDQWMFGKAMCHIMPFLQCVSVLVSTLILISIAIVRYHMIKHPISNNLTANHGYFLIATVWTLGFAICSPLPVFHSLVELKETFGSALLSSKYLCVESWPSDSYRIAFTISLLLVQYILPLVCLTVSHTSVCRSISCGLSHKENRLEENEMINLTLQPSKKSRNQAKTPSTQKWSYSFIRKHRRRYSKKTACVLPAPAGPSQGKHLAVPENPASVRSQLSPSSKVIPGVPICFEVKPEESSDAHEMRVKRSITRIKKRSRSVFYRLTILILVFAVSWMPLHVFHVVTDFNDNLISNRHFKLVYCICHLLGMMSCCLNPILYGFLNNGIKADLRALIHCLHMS

rat Y4 receptor [7] = target: T5, rat Y4 receptor; assay: 125I-PYY displacement, COS-7 membranes; remark: listed apart in the source
[8] = target: T7, rat hypothalamic Y5 receptor; assay: 125I-PYY displacement, COS-7 membranes
human Y1 receptor [9] = target: T8, human Y1 receptor (human, UniProt P25929 1-384); assay: 125I-PYY displacement, COS-7 membranes
T8 construct: whole, on cells; stably transfected 293 cells for function
T8 sequence (looked up): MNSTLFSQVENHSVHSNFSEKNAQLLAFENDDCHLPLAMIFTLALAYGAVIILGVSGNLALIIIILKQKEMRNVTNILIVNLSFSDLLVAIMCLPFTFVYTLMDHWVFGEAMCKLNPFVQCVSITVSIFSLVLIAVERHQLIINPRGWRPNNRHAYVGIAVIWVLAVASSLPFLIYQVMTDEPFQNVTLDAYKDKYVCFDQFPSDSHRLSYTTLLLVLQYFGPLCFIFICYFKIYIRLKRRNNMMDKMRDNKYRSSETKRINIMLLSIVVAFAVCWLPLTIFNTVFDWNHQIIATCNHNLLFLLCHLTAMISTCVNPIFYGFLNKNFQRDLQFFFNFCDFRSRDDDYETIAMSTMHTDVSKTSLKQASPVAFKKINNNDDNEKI

human Y4 receptor [10] = target: T9, human Y4 receptor (human, UniProt P50391 1-375); assay: 125I-PYY displacement, COS-7 membranes
T9 construct: whole, on cells

[11] = target: T7, rat hypothalamic Y5 receptor; assay: 125I-PYY displacement, COS-7 membranes; remark: listed apart in the source
[12] = target: T7, rat hypothalamic Y5 receptor; assay: 125I-PYY displacement, COS-7 membranes; remark: listed apart in the source
human Y5 receptor [13] = target: T6, human Y5 receptor; assay: 125I-PYY displacement, COS-7 membranes
human Y5 receptor [14] = target: T6, human Y5 receptor; assay: 125I-PYY displacement, COS-7 membranes; remark: listed apart in the source
human Y1 receptor [15] = target: T8, human Y1 receptor; assay: 125I-PYY displacement, COS-7 membranes; remark: listed apart in the source
human Y4 receptor [16] = target: T9, human Y4 receptor; assay: 125I-PYY displacement, COS-7 membranes; remark: listed apart in the source
canine Y5 receptor [17] = target: T4, canine Y5 receptor; assay: 125I-PYY displacement, COS-7 membranes; remark: listed apart in the source
human Y5 receptor [18] = target: T6, human Y5 receptor; assay: cell-based or functional assay
human Y5 receptor [19] = target: T6, human Y5 receptor; assay: 125I-PYY displacement, LM(tk-) membranes

T9 sequence (P50391 whole entry): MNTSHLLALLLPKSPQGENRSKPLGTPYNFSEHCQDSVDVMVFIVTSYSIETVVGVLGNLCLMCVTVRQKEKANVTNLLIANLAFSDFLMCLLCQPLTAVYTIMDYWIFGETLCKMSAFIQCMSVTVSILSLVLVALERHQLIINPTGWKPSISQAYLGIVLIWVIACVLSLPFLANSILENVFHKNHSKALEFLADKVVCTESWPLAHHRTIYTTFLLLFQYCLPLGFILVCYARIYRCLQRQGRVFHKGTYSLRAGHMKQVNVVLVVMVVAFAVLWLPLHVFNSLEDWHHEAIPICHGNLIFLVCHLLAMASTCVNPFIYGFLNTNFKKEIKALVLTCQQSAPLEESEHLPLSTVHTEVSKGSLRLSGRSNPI
T5 sequence (Q63447 whole entry): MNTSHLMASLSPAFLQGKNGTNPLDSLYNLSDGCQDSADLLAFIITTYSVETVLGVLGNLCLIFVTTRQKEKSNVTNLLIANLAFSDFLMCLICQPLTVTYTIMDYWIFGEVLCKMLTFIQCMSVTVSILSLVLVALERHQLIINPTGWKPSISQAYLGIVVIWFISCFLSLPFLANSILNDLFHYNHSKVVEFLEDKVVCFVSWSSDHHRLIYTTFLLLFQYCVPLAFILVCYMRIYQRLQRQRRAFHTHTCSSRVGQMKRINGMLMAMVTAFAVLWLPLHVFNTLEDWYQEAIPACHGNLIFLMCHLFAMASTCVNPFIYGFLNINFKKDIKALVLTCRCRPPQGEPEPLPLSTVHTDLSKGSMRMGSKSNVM

B1: porcine NPY26-36 (peptide, UniProt P01304 35-45, looked up)
peptide: HYINLITRQRY
notes: range 26-36; Range counted on the mature peptide
Ki (human Y2 receptor [1]): 380 nM
Ki (human Y2 receptor [2]): 380 nM

B2: human PYY13-36 (peptide, UniProt P10082 41-64, looked up)
peptide: SPEELNRYYASLRHYLNLVTRQRY
notes: range 13-36; Range counted on the mature peptide
Ki (rat Y1 receptor): 130 nM

B3: porcine NPY13-36 (peptide, UniProt P01304 22-45, looked up)
peptide: PAEDLARYYSALRHYINLITRQRY
notes: range 13-36; Range counted on the mature peptide; also called NPY13-36, porcine
Ki (rat Y1 receptor): 190 nM
Ki (rat Y2 receptor): 31 nM
Ki (canine Y5 receptor [3]): 120 nM

B4: porcine NPY22-36 (peptide, UniProt P01304 31-45, looked up)
peptide: SALRHYINLITRQRY
notes: range 22-36; Range counted on the mature peptide
Ki (rat Y2 receptor): 54 nM

B5: human PP31-36 (peptide, UniProt P01298 60-65, looked up)
peptide: LTRPRY
notes: range 60-65; Range counted on the mature peptide
Ki (rat Y4 receptor [4]): 26 nM
Ki (human Y5 receptor [5]): 41000 nM

APSEPHHPGDQATQDQLAQYYSDLYQYITFVTRPRF (ends and bridges not checked) [frog PP (rana temporaria)]
Ki (rat Y1 receptor): 720 nM

APLEPMYPGDYATHEQRAQYETQLRRYINTLTRPRY (peptide, UniProt P06303 30-65, looked up, mature; also called PP, rat) [rat PP]
EC50, inhibition of forskolin-stimulated cAMP accumulation, 293 cells [6]: 130 nM
Ki (rat Y4 receptor [7]): < 0.2 nM
Ki [8]: 180 nM
Ki (human Y1 receptor [9]): 450 nM
Ki (human Y4 receptor [10]): 0.16 nM
Ki [11]: 230 nM
Ki [12]: 230 nM
Ki (human Y5 receptor [13]): 630 nM
Ki (human Y5 receptor [14]): 630 nM
Ki (human Y1 receptor [15]): 450 nM
Ki (human Y4 receptor [16]): 0.16 nM
Ki (canine Y5 receptor [3]): 160 nM
Ki (human Y5 receptor [5]): 130 nM

B6: human PP (peptide, UniProt P01298 30-65, looked up)
peptide: APLEPVYPGDNATPEQMAQYAADLRRYINMLTRPRY
notes: mature; also called PP, human; human pancreatic polypeptide
Ki (canine Y5 receptor [17]): < 10 nM
Ki (rat Y4 receptor [7]): < 0.2 nM
Ki [8]: 5 nM
Ki [11]: 5 nM
Ki (rat Y4 receptor [4]): 0.04 nM
Ki [12]: 5 nM
Ki (canine Y5 receptor [3]): 6.3 nM

APLEPVYPGDNATPEQMAQYAADLRRYINMITRQRY (peptide, UniProt P01298 30-65, looked up, ends and bridges not checked, mature) [human [Ile^31, Gln^34]PP]
EC50, inhibition of forskolin-stimulated cAMP accumulation, LM(tk-) cells (human Y5 receptor [18]): 5.6 nM
Ki (human Y5 receptor [13]): 2 nM

APLEPEYPGDNATPEQMAQYAAELRRYINMLTRPRY (peptide, UniProt P01302 30-65, looked up, mature; also called PP, bovine) [bovine PP]
EC50, inhibition of forskolin-stimulated cAMP accumulation, 293 cells [6]: 5.7 nM
Ki [11]: 8.4 nM
Ki (rat Y1 receptor): 120 nM
Ki [12]: 8.4 nM
Ki (human Y5 receptor [13]): 1.6 nM
Ki (canine Y5 receptor [3]): 10 nM
Ki (human Y5 receptor [19]): 7.9 nM
Ki (human Y5 receptor [5]): 5 nM

B7: human PP2-36 (peptide, UniProt P01298 31-65, looked up)
peptide: PLEPVYPGDNATPEQMAQYAADLRRYINMLTRPRY
notes: range 2-36; Range counted on the mature peptide
EC50, inhibition of forskolin-stimulated cAMP accumulation, LM(tk-) cells (human Y5 receptor [18]): 2 nM
Ki (human Y5 receptor [13]): 2.1 nM
Ki (human Y5 receptor [14]): 2.1 nM

B8: porcine NPY16-36 (peptide, UniProt P01304 25-45, looked up)
peptide: DLARYYSALRHYINLITRQRY
notes: range 16-36; Range counted on the mature peptide
Ki [11]: 260 nM
Ki (rat Y1 receptor): 140 nM
Ki (rat Y2 receptor): 35 nM
Ki (rat Y4 receptor [4]): 200 nM
Ki [12]: 260 nM
Ki (human Y5 receptor [13]): 300 nM
Ki (human Y5 receptor [5]): 180 nM

B9: human PP13-36 (peptide, UniProt P01298 42-65, looked up)
peptide: TPEQMAQYAADLRRYINMLTRPRY
notes: as for B2
Ki (human Y4 receptor [10]): 39 nM
Ki [11]: 84 nM
Ki [12]: 290 nM
Ki (human Y5 receptor [13]): 720 nM
Ki (human Y5 receptor [14]): 720 nM
Ki (human Y4 receptor [16]): 39 nM

FLRF (C-terminal amide) [FLRF-amide]
EC50, inhibition of forskolin-stimulated cAMP accumulation, 293 cells [6]: 13000 nM
Ki [11]: 5500 nM
Ki (rat Y1 receptor): 45000 nM
